This note sets out measurements from patent US20180009843A1.

No end group written: not given here.

Data set [1] addresses T cell receptors of CD4+ NKT cells from the spleen of BALB/c mice given intranasal Der p 1. Kind of data set: tetramer staining of spleen CD4+ T cells, facs.
Data set [2] has as its target T cell receptors of NKT cells among spleen CD4+ T cells of hemophilia A mice immunized with Factor VIII. In words: fluorochrome-labeled tetramer, 30 minutes at 4 C, Facs.
Data set [3] has as its target T1, CD1d molecule expressed on JAWS2 cells, P11609.
T1 chain: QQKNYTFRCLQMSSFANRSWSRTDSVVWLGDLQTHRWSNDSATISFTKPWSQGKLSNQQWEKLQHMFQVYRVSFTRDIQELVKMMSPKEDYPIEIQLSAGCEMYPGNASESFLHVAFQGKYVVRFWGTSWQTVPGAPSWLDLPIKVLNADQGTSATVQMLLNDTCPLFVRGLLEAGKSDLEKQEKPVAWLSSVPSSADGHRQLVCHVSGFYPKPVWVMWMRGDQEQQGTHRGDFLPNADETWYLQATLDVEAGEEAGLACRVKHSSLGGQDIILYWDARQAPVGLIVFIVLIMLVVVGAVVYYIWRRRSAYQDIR

In data set [1], FSGVAAT (peptide-MHC, part only; not given: CD1d and beta-2 microglobulin, part only) [CD1d tetramers loaded with peptide of SEQ ID13] registered a percentage of cells stained with the tetramers of 10%.
In data set [2], FCHISSH (peptide-MHC, part only; not given: peptide flanks, CD1d, beta-2 microglobulin, part only, also: loaded on fluorochrome-labelled CD1d tetramers) [CD1d tetramers loaded with peptide of SEQ ID1 (44pept)] yielded a % of NKT cells recognizing the tetramer below 45%.

B1: Der p 1 in natural sequence (SEQ ID17) (protein)
chain: TNACSINGNAPAEIDLRQMRTVTPIRMQGGCGSCWAFSGVAATESAYLAYRNQSLDLAEQELVDCASQHGCHGDTIPRGIEYIQHNGVVQESYYRYVAREQSCRRPNAQRFGISNYCQIYPPNVNKIREALAQTHSAIAVIIGIKDLDAFRHYDGRTIIQRDNGYQPNYHAVNIVGYSNAQGVDYWIVRNSWDTNWGDNGYGYFAANIDLMMIEEYPYVVIL
Take B1: in data set [3], the “production of cytokines such as IFN-gamma and IL-4 as markers of NKT activation” value was “a significant production of cytokines was present”.

B2: mutated Der p 1 (SEQ ID16) (protein)
chain: TNACSINGNAPAEIDLRQMRTVTPIRMQGGCGSCWASSGVAATESAYLAYRNQSLDLAEQELVDCASQHGCHGDTIPRGIEYIQHNGVVQESYYRYVAREQSCRRPNAQRFGISNYCQIYPPNVNKIREALAQTSSAIAVIIGIKDLDAFRHYDGRTIIQRDNGYQPNYHAVNIVGYSNAQGVDYWIVRNSWDTNWGDNGYGYFAANIDLMMIEESPYVVIL
Regarding B2, the “production of IFN-gamma and IL-4 taken as an indication of NKT activation” value in data set [3] was “NKT cells obtained from mice immunized with natural sequence Der p 1 failed to be activated when incubated in the presence of JAWS2 cells loaded with mutated Der p 1”.
With HSAIAAVI (peptide-MHC, part only; not given: CD1d and beta-2 microglobulin, part only) [CD1d tetramers loaded with peptide of SEQ ID14], in data set [1], the percentage of cells stained with the tetramers was determined as 10%.
As to YPYVVIL (peptide-MHC, part only; not given: CD1d and beta-2 microglobulin, part only) [CD1d tetramers loaded with peptide of SEQ ID15], the percentage of cells stained with the tetramers in data set [1] amounted to 10%.
